Test results published in paper PMC12153800 (2025).
Each block holds one binder with its values, some of them ahead of it.

Experiments:
HiBiT-FZD2-mCherry = HiBiT-FZD2-mCherry (mouse, UniProt Q9JIP6 29-570)
HiBiT-FZD1-mCherry = HiBiT-FZD1-mCherry (mouse, UniProt O70421 69-642)
HiBiT-FZD4-mCherry = molecular target: T1, HiBiT-FZD4-mCherry (mouse, UniProt Q61088 37-537)
T1 chain: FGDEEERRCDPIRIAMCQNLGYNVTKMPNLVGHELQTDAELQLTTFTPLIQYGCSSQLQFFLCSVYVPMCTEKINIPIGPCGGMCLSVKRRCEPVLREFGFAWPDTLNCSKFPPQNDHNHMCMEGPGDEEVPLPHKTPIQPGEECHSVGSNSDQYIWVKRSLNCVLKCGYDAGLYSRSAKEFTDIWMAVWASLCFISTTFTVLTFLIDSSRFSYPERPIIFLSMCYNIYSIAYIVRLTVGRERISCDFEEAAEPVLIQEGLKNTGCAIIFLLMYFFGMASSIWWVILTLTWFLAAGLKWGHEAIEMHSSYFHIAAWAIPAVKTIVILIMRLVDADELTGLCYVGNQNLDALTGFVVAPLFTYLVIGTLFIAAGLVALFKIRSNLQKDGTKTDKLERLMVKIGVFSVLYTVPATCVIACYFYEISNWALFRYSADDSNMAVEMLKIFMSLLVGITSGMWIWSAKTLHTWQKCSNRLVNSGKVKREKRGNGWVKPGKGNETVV

[1] = molecular target: T2, HiBiT-FZD5-mCherry (U-2 OS cells) (mouse, UniProt Q9EQD0 27-585)
T2 chain: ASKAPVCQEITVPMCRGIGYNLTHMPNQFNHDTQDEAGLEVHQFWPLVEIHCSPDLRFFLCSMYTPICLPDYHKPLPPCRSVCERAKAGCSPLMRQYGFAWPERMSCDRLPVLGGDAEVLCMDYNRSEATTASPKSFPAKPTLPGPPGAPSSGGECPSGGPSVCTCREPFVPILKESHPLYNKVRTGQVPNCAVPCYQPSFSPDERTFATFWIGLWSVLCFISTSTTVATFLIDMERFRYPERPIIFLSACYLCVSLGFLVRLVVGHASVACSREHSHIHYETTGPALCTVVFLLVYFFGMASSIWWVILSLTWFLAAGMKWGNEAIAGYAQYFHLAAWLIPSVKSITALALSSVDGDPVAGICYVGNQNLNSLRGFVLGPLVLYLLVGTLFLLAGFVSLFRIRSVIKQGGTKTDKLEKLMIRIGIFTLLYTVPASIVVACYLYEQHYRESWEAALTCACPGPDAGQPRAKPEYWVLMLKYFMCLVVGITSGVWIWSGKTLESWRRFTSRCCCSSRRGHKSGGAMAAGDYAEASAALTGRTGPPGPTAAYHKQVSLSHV

HiBiT-FZD8-mCherry = molecular target: T3, HiBiT-FZD8-mCherry (mouse, UniProt Q61091 28-685)
T3 chain: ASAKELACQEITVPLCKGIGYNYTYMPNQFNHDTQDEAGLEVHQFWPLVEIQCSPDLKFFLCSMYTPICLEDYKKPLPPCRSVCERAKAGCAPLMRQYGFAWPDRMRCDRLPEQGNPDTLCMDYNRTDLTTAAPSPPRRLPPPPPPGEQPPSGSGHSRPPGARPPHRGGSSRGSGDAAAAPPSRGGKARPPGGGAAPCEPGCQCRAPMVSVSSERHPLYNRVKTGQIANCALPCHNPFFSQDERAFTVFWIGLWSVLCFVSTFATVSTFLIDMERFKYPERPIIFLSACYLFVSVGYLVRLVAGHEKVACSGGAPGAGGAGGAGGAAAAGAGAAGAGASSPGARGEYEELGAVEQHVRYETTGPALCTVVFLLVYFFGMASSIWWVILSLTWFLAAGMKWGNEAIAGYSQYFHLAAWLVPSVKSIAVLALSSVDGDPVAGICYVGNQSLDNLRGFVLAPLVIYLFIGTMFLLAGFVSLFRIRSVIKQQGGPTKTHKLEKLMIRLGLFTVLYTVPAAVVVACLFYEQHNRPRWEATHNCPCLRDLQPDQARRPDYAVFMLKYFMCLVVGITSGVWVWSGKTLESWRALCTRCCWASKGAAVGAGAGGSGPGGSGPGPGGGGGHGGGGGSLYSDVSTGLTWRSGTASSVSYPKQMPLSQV

HiBiT-FZD7-mCherry = HiBiT-FZD7-mCherry (mouse, UniProt Q61090 33-572)

Chain of HiBiT-FZD2-mCherry (Q9JIP6 29-570): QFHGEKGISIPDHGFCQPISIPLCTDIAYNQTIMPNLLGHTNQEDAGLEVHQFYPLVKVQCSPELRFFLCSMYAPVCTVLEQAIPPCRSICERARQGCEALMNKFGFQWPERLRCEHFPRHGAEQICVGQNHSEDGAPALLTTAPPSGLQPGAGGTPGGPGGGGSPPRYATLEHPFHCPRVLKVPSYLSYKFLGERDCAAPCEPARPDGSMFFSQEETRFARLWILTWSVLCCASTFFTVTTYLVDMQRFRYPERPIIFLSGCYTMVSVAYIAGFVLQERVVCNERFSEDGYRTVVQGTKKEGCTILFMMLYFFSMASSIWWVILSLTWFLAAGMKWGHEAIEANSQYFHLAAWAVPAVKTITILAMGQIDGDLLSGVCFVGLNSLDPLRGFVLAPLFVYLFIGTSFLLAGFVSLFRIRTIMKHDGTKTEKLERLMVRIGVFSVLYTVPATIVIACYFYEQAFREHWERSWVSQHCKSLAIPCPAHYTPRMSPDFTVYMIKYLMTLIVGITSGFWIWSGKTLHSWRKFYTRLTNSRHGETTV
Chain of HiBiT-FZD1-mCherry (O70421 69-642): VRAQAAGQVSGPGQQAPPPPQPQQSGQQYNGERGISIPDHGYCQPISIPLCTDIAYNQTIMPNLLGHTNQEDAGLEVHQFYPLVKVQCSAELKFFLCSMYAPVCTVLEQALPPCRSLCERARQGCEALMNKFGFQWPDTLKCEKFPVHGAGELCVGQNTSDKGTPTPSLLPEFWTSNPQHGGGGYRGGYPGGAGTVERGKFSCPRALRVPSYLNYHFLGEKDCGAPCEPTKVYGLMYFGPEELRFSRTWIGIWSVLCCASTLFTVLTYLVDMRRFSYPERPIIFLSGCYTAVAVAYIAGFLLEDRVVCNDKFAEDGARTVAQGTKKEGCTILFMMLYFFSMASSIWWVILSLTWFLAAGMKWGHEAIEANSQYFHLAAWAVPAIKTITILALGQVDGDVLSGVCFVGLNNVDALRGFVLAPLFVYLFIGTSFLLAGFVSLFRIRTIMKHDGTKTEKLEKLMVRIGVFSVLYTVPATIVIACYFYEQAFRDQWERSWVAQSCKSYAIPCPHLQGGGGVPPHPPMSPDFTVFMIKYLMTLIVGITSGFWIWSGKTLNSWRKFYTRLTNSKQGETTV

Kd (HiBiT-FZD2-mCherry): 10.6 nM | Kd (HiBiT-FZD1-mCherry): 30.7 nM | Kd (HiBiT-FZD4-mCherry): 21.8 nM | Kd [1]: 14.2 nM | Kd (HiBiT-FZD8-mCherry): 6.62 nM | Kd (HiBiT-FZD7-mCherry): 10.3 nM
B1: eGFP-Wnt16 (ligand)
chain: NWMWLGIASFGVPEKLGCANLPLNSRQKELCKRKPYLLPSIREGARLGIQECGSQFRHERWNCMITAAATTAPMGASPLFGYELSSGTKETAFIYAVMAAGLVHSVTRSCSAGNMTECSCDTTLQNGGSASEGWHWGGCSDDVQYGMWFSRKFLDFPIGNTTGKENKVLLAMNLHNNEAGRQAVAKLMSVDCRCHGVSGSCAVKTCWKTMSSFEKIGHLLKDKYENSIQISDKTKRKMRRREKDQRKIPIHKDDLLYVNKSPNYCVEDKKLGIPGTQGRECNRTSEGADGCNLLCCGRGYNTHVVRHVERCECKFIWCCYVRCRRCESMTDVHTCK

Kd (HiBiT-FZD2-mCherry): 3.85 nM | Kd (HiBiT-FZD1-mCherry): 14.4 nM | Kd (HiBiT-FZD4-mCherry): 3.56 nM | Kd [1]: 16.2 nM | Kd (HiBiT-FZD8-mCherry): 7.52 nM | Kd (HiBiT-FZD7-mCherry): 1.25 nM
B2: eGFP-Wnt5a (ligand)
chain: IIGAQPLCSQLAGLSQGQKKLCHLYQDHMQYIGEGAKTGIKECQYQFRHRRWNCSTVDNTSVFGRVMQIGSRETAFTYAVSAAGVVNAMSRACREGELSTCGCSRAARPKDLPRDWLWGGCGDNIDYGYRFAKEFVDARERERIHAKGSYESARILMNLHNNEAGRRTVYNLADVACKCHGVSGSCSLKTCWLQLADFRKVGDALKEKYDSAAAMRLNSRGKLVQVNSRFNSPTTQDLVYIDPSPDYCVRNESTGSLGTQGRLCNKTSEGMDGCELMCCGRGYDQFKTVQTERCHCKFHWCCYVKCKKCTEIVDQFVCK
